Test results taken from patent US20220154181A1.

What was measured:
[1] = test system: T1, NHS-Rhodamine labelled recombinant Tma17p (γ-subunit); experiment: titration of NHS-Rhodamine labelled γ-subunit against ΔTma17p-FAS, native agarose gel, fluorescence of FAS-bound Tma17p quantified
T1 sequence: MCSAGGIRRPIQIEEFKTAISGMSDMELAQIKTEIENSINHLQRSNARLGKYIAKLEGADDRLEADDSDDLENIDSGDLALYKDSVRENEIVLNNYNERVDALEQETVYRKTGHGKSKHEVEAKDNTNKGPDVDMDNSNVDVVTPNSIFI

[2] = target: Saccharomyces cerevisiae type I fatty acid synthase (α6β6, 2.6 MDa) without the γ-subunit (Saccharomyces cerevisiae) (UniProt P19097); experiment: cell-based or functional assay
Sequence of UniProt P19097 (P19097 whole entry, chain 1 of 2): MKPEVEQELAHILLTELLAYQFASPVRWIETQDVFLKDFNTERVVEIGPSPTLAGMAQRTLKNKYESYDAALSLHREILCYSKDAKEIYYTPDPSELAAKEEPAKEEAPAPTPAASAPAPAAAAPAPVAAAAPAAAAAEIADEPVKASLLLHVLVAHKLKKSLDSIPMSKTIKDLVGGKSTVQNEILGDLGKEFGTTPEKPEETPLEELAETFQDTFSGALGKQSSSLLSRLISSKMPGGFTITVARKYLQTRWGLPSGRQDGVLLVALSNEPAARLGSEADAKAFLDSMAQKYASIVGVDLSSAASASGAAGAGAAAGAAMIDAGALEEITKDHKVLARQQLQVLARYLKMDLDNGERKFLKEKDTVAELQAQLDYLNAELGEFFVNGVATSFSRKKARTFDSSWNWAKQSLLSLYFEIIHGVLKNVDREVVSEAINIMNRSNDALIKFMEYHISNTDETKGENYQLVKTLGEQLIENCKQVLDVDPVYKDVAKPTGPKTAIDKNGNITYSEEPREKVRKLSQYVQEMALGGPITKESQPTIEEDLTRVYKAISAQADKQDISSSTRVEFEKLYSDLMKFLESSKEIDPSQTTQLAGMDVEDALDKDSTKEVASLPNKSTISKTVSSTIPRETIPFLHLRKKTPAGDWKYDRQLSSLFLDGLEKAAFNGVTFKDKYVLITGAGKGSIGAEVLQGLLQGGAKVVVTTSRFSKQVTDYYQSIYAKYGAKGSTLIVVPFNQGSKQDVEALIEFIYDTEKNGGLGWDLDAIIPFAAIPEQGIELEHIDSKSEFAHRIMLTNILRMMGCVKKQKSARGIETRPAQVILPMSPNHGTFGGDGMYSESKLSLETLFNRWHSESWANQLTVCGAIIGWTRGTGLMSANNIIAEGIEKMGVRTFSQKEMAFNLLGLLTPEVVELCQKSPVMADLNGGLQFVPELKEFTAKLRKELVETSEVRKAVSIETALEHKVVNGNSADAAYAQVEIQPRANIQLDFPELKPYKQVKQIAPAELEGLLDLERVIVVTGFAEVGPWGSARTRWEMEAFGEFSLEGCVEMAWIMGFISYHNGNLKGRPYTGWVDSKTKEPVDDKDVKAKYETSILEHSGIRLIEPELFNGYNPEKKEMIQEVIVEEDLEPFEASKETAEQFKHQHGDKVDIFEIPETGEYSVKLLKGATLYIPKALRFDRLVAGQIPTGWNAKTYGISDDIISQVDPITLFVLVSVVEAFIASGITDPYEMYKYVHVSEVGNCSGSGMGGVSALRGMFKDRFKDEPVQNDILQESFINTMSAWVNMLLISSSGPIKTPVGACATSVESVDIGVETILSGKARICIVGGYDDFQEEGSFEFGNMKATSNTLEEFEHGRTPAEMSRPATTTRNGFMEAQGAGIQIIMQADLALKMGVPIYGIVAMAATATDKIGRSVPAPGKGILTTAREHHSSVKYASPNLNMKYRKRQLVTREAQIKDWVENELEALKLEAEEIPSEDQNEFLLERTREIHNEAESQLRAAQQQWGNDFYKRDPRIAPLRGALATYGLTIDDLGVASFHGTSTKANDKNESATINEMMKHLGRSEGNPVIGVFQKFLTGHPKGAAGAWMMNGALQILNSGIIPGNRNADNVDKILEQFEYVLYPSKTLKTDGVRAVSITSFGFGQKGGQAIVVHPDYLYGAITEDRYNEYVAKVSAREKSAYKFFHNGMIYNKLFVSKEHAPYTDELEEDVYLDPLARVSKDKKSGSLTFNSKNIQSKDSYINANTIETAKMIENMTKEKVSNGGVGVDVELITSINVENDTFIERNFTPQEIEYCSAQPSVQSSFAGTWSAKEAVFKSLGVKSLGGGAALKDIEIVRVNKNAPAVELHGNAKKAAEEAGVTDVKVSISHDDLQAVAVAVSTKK
Sequence of UniProt P19097 (P07149 whole entry, chain 2 of 2, further chain): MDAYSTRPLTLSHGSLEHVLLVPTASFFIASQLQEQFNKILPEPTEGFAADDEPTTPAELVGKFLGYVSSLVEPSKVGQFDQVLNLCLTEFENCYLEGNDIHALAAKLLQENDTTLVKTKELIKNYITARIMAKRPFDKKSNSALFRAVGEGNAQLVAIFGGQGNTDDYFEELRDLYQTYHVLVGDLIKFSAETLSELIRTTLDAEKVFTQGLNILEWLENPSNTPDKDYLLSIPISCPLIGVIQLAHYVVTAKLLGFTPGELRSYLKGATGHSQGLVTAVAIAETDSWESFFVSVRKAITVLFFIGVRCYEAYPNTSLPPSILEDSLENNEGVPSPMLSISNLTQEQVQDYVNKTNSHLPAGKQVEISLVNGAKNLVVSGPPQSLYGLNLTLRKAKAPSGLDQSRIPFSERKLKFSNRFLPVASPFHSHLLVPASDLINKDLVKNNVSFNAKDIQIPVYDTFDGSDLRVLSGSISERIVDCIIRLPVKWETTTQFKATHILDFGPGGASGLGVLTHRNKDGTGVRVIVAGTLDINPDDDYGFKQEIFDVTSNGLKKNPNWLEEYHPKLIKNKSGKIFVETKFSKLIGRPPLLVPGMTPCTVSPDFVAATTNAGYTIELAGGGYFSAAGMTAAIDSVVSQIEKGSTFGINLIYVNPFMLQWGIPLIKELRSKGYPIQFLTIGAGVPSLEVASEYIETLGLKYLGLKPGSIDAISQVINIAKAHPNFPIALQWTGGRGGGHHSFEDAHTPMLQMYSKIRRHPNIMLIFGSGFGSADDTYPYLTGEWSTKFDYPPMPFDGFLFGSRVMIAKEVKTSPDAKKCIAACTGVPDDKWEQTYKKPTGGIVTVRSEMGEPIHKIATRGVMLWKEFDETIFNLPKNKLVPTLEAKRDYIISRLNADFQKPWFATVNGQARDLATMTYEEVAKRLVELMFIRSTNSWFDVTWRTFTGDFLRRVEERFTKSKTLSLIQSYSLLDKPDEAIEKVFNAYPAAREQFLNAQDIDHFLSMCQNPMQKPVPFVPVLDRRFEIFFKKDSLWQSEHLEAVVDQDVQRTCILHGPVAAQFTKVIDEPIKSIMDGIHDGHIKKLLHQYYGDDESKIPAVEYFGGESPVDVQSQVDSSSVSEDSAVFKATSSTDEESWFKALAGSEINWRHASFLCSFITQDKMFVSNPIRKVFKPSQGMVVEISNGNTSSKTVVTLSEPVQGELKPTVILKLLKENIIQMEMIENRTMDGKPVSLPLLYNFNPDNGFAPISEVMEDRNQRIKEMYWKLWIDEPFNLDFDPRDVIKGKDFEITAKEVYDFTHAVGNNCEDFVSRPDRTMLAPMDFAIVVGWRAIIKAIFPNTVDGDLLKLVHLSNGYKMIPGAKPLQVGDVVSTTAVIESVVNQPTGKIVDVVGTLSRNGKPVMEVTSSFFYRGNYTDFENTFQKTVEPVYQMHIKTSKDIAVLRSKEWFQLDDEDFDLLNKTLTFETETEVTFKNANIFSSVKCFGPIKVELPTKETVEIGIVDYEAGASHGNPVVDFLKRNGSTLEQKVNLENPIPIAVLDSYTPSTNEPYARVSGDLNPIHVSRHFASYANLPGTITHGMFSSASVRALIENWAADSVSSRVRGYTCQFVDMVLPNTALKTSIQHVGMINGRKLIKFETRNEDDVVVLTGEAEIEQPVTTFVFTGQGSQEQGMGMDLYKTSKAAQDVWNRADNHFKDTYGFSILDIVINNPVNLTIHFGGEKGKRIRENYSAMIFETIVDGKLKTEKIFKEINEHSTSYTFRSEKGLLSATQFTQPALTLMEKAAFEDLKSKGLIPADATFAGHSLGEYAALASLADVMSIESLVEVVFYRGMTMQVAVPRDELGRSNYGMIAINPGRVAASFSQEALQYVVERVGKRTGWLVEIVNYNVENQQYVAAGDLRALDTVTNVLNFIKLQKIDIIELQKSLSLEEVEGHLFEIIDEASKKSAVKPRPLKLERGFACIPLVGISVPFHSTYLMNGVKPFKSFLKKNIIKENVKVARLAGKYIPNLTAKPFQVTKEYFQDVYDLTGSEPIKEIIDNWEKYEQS

Saccharomyces cerevisiae type I fatty acid synthase (α6β6, 2.6 MDa) without the γ-subunit
K0.5 (Hill equation) [1]: K0.5=2.1±0.2 µM

B1: Tma17p, the gamma-subunit of the yeast fatty acid synthase (TMA 17 molecule from Saccharomyces cerevisiae) (protein)
chain: MCSAGGIRRPIQIEEFKTAISGMSDMELAQIKTEIENSINHLQRSNARLGKYIAKLEGADDRLEADDSDDLENIDSGDLALYKDSVRENEIVLNNYNERVDALEQETVYRKTGHGKSKHEVEAKDNTNKGPDVDMDNSNVDVVTPNSIFI
KMapp for NADPH, steady-state kinetics of the FAS holoenzyme (saturating γ-subunit) [2]: 155 µM
fold decrease of affinity for acetyl-CoA, steady-state kinetics [2]: 2 fold
fold decrease of affinity for malonyl-CoA, steady-state kinetics [2]: 4 fold
fold reduction in the binding affinity for NADPH, steady-state kinetics [2]: 15 fold
percent of selected cryo-EM particles in the rotated state, at a 6-fold excess of the γ-subunit [2]: 88%
percent of selected cryo-EM particles in the rotated state, at a 12-fold molar excess of the γ-subunit [2]: 95%
